For the test, the target named is T1, ROR1-protein (human, UniProt Q01973 30-403, limits assumed).
T1 construct: also called orphan tyrosine kinase receptor ROR1
Nature of the test: assay not described; monovalent binding affinity for ROR1 compared with mAb 2A2.

Some results are limits rather than exact numbers.

T1 sequence (Q01973 30-403 limits assumed): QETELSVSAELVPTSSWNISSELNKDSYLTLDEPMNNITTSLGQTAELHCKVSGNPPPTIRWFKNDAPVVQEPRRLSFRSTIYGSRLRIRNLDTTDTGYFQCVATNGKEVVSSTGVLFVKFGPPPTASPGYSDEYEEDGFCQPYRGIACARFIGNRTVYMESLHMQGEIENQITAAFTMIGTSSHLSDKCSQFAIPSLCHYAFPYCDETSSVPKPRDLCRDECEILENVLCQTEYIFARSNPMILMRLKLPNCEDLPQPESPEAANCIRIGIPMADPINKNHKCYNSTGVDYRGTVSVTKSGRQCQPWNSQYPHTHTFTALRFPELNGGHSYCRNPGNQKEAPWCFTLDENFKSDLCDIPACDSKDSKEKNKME

B1: anti-ROR1 monoclonal antibody R12 (antibody, V domains shown)
VH: QEQLVESGGRLVTPGGSLTLSCKASGFDFSAYYMSWVRQAPGKGLEWIATIYPSSGKTYYATWVNGRFTISSDNAQNTVDLQMNSLTAADRATYFCARDSYADDGALFNIWGPGTLVTISS
VL: ELVLTQSPSVSAALGSPAKITCTLSSAHKTDTIDWYQQLQGEAPRYLMQVQSDGSYTKRPGVPDRFSGSSSGADRYLIIPSVQADDEADYYCGADYIGGYVFGGGTQLTVTG
notes: also called mAb R12; R12 mAb
For the molecule B1, the “fold higher monovalent binding affinity than 2A2” value is greater than 50 fold.
